According to US7514408:
Square brackets hold non-standard residues; d marks the D form. Ends that are not written are not given here. Sta = CC(C)C[C@H](N)[C@@H](O)CC(=O)O; Phg = N[C@H](C(=O)O)c1ccccc1; Tle = CC(C)(C)[C@H](N)C(=O)O; Abu = CC[C@H](N)C(=O)O

B1: heptamer peptide 7E (Ac-Val-Met-Sta-Ala-Ala-Glu-Phe) (peptide)
peptide: Ac-VM[Sta]AAEF
B2: heptamer peptide 7F (Ac-Val-Met-Sta-tLeu-Ala-Glu-Phe) (peptide)
peptide: Ac-VM[Sta][Tle]AEF
B3: heptamer peptide 7K (Ac-Val-Glu-Sta-Val-Ala-Glu-Phe) (peptide)
peptide: Ac-VE[Sta]VAEF
B4: heptamer peptide 7L (Ac-Val-Val-Sta-Val-Ala-Glu-Phe) (peptide)
peptide: Ac-VV[Sta]VAEF
B5: heptamer peptide 7M (Ac-Val-Gly-Sta-Val-Ala-Glu-Phe) (peptide)
peptide: Ac-VG[Sta]VAEF
B6: hexameric peptide 7N (Ac-Val-Met-Sta-Ala-Glu-Phe, P1′ deleted) (peptide)
peptide: Ac-VM[Sta]AEF
B7: β-secretase purified from human brain (naturally occurring β-secretase) (protein)
chain: ETDEEPEEPGRRGSFVEMVDNLRGKSGQGYYVEMTVGSPPQTLNILVDTGSSNFAVGAAPHPFLHRYYQRQLSSTYRDLRKGVYVPYTQGKWEGELGTDLVSIPHGPNVTVRANIAAITESDKFFINGSNWEGILGLAYAEIARPDDSLEPFFDSLVKQTHVPNLFSLQLCGAGFPLNQSEVLASVGGSMIIGGIDHSLYTGSLWYTPIRREWYYEVIIVRVEINGQDLKMDCKEYNYDKSIVDSGTTNLRLPKKVFEAAVKSIKAASSTEKFPDGFWLGEQLVCWQAGTTPWNIFPVISLYLMGEVTNQSFRITILPQQYLRPVEDVATSQDDCYKFAISQSSTGTVMGAVIMEGFYVVFDRARKRIGFAVSACHVHDEFRTAAVEGPFVTLDMEDCGYNIPQTDESTLMTIAYVMAAICALFMLPLCLMVCQWRCLRCLRQQHDDFADDISLLK
B8: hexameric peptide 7R ((NH2)Val-Met-Sta-Val-Glu-Phe, P2′ deleted) (peptide)
peptide: H-VM[Sta]VEF
B9: heptamer peptide 7C (Ac-Val-Met-Sta-Abu-Ala-Glu-Phe) (peptide)
peptide: Ac-VM[Sta][Abu]AEF
B10: heptamer peptide 7D (Ac-Val-Met-Sta-Phg-Ala-Glu-Phe) (peptide)
peptide: Ac-VM[Sta][Phg]AEF

What was measured:
[1] = molecular target: β-secretase (enzyme preparation not stated for the inhibitor assays) (human) (UniProt P56817); test: cell-based or functional assay
[2] = molecular target: Swedish mutant P13-P5′ peptide with P1′ aspartic acid replaced with a leucine (D→L), P05067
Sequence of Swedish mutant P13-P5′ peptide with P1′ aspartic acid replaced with a leucine (D→L), P05067 (P05067 whole entry, looked up, change not shown, tested part not stated): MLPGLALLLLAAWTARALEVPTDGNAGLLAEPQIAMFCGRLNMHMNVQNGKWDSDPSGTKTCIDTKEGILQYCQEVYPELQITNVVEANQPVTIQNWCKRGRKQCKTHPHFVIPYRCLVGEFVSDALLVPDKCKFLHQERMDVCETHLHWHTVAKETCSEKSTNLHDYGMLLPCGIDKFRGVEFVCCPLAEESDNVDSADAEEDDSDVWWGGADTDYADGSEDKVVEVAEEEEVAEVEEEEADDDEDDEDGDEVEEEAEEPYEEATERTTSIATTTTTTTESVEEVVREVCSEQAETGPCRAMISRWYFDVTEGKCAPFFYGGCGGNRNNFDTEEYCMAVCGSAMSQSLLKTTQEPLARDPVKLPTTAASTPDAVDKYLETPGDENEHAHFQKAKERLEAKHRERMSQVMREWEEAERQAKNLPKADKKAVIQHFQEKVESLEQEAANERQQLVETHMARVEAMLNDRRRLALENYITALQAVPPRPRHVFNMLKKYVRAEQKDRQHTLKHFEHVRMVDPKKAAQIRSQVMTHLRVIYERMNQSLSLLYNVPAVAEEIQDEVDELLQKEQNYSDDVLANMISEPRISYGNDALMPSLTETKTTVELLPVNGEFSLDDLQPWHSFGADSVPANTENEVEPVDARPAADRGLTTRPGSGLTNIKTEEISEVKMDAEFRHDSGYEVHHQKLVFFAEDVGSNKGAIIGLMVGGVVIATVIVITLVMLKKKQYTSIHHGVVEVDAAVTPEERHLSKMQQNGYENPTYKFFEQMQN

[3] = molecular target: Swedish mutant P13-P5′ peptide with P1′ aspartic acid replaced with a valine (D→V), P05067
Sequence of Swedish mutant P13-P5′ peptide with P1′ aspartic acid replaced with a valine (D→V), P05067 (P05067 whole entry, looked up, change not shown, tested part not stated): as above

| Binder | IC50 Group, MBP C125 assay (Group II: =1<10 µM) [1] | also measured |
| --- | --- | --- |
| B1 | < 10 µM |  |
| B2 |  | IC50 Group, MBP C125 assay (Group IV: =20<50 µM) [1]: < 50 µM |
| B3 | < 10 µM |  |
| B4 |  | IC50 Group, MBP C125 assay (Group IV: =20<50 µM) [1]: < 50 µM |
| B5 | < 10 µM |  |
| B6 | < 10 µM |  |
| B7 |  | substrate concentration dependence of hydrolysis by brain β-secretase [2]: The valine and leucine substituted Swedish peptides show saturation at a lower concentration than the parent Swedish peptide; substrate concentration dependence of hydrolysis by brain β-secretase [3]: The valine and leucine substituted Swedish peptides show saturation at a lower concentration than the parent Swedish peptide |
| B8 | < 10 µM |  |
| B9 | < 10 µM |  |
| B10 | < 10 µM |  |
